In patent publication US20190292266A1:

Tests used:
[1] = molecular target: PD1 (immobilized target, Example 7); experiment: SPR, PD1 immobilized on CM5 chip, Langmuir 1:1
CD3 (Example 7) = experiment: SPR, biotinylated CD3 on SA chip, Langmuir 1:1
Chain of CD3 (Example 7) (P22646 22-108): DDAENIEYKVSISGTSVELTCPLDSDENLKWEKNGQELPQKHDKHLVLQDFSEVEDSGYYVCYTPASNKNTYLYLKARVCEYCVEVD

| Kd [1] [nM] | koff [1] [s⁻¹] | kon [1] [M⁻¹ s⁻¹] | Kd (CD3 (Example 7)) [nM] | koff (CD3 (Example 7)) [s⁻¹] | kon (CD3 (Example 7)) [M⁻¹ s⁻¹] | Binder |
| --- | --- | --- | --- | --- | --- | --- |
| 36.2 | 0.000282 | 7780 | 3.92 | 0.0015 | 381000 | 145-2C11 Fab CL 128187 (bispecific antibody, modifications not checked) heavy: EVQLVESGGGLVQPGKSLKLSCEASGFTFSGYGMHWVRQAPGRGLESVAYITSSSINIKYADAVKGRFTVSRDNAKNLLFLQMNILKSEDTAMYYCARFDWDKNYWGQGTMVTVSSAKTTAPSVYPLAPACDSTTSTTNTVTLGCLVKGYFPEPVTVIWNSGALTSGVHTFPSVLHSGLYSLSSSVTVPSSTWPSQTVTCNVAHPASSTTVDLKIE light: not shown |
| 4.61 | 0.000229 | 49600 | 10.8 | 0.00306 | 284000 | 145-2C11 Fab NH 128187 (bispecific antibody, modifications not checked) heavy: not shown light: DIQMTQSPSSLPASLGDRVTINCQASQDISNYLNWYQQKPGKAPKLLIYYTNKLADGVPSRFSGSGSGRDSSFTISSLESEDIGSYYCQQYYNYPWTFGPGTKLEIKRADAKPTVSIFPPSSEQLGTGSATLVCFVNNFYPKDINVKWKVDGSEKRDGVLQSVTDQDSKDSTYSLSSTLSLTKADYERHNLYTCEVTHKTSTAAIVKTLNRNEC |
| 686 | 9.45e-05 | 138 | 2.14 | 0.00126 | 587000 | 145-2C11 Fab CH 128187 (bispecific antibody, modifications not checked) heavy: not shown light: DIQMTQSPSSLPASLGDRVTINCQASQDISNYLNWYQQKPGKAPKLLIYYTNKLADGVPSRFSGSGSGRDSSFTISSLESEDIGSYYCQQYYNYPWTFGPGTKLEIKRADAKPTVSIFPPSSEQLGTGSATLVCFVNNFYPKDINVKWKVDGSEKRDGVLQSVTDQDSKDSTYSLSSTLSLTKADYERHNLYTCEVTHKTSTAAIVKTLNRNEC |
